# In US20190298830A1 (SUZHOU GALAXY BIOPHARMA, published 2019):
# B1: human monoclonal antibody 8D6 (antibody, V domains shown)
# VH: EVQLVQSGSELKKPGASLKLSCKASGYTYITPAMNWVRQAPGHGLEWMGGINTNTGNPTYAQGFAGRFVFSWDTSVSTAYLHISSLKTEDTAVYYCADTRIFSCRRGTCYGGFDVWGQGTMVTVSS
# VL: DIQMTQSPSSLSASVGDRITITCRASQSISNFLNWFQHRPGKAPKLLIYGATILQSGVPSRFSGSGSGTDFTLTISSLQPEDFATYYCQQSDSSTYIFGQGTKVEIK
# What was measured:
# Assay in all cases: cell-based or functional assay
# [1] = target: E2 envelope protein on HCV euvirus (HCVcc) particles, strain PR26 (1b) (Hepatitis C virus strain PR26 (1b))
# [2] = target: E2 envelope protein on HCV euvirus (HCVcc) particles, strain PR63 (2a) (Hepatitis C virus strain PR63 (2a))
# [3] = target: E2 envelope protein on HCV euvirus (HCVcc) particles, strain HK6a (6a) (Hepatitis C virus strain HK6a (6a))
# [4] = target: T1, E2 envelope protein on HCV euvirus (HCVcc) particles, strain PR79 (1b) (Hepatitis C virus strain PR79 (1b))
# [5] = target: E2 envelope protein on HCV euvirus (HCVcc) particles, strain Con1 (1b) (Hepatitis C virus strain Con1 (1b))
# [6] = target: E2 envelope protein on HCV euvirus (HCVcc) particles, strain S52 (3a) (Hepatitis C virus strain S52 (3a))
# [7] = target: E2 envelope protein on HCV euvirus (HCVcc) particles, strain PR52 (1b) (Hepatitis C virus strain PR52 (1b))
# [8] = target: T2, E2 envelope protein on HCV euvirus (HCVcc) particles, strain JFH1 (2a) (Hepatitis C virus strain JFH1 (2a))
# [9] = target: T3, E2 envelope protein on HCV euvirus (HCVcc) particles, strain D183 (2a) (Hepatitis C virus strain D183 (2a))
# [10] = target: E2 envelope protein on HCV euvirus (HCVcc) particles, strain J8 (2b) (Hepatitis C virus strain J8 (2b))
# [11] = target: E2 envelope protein on HCV euvirus (HCVcc) particles, strain SA13 (5a) (Hepatitis C virus strain SA13 (5a))
# [12] = target: T1, E2 envelope protein on HCV euvirus …; remark: listed apart in the source
# [13] = target: E2 envelope protein on HCV euvirus particles, strain PR52B6M (1b) (Hepatitis C virus strain PR52B6M (1b))
# [14] = target: T2, E2 envelope protein on HCV euvirus …; remark: listed apart in the source
# [15] = target: T3, E2 envelope protein on HCV euvirus …; remark: listed apart in the source
binder,measurement,setting,value
B1,"IC50 (µg/ml), micro neutralization of HCV euvirus (NS5A-positive foci in Huh-7.5 cells)",[1],0.412 µg/mL
same,"IC50 (µg/ml), micro neutralization of HCV euvirus (NS5A-positive foci in Huh-7.5 cells)",[2],< 0.016 µg/mL
same,"IC50 (µg/ml), micro neutralization of HCV euvirus (NS5A-positive foci in Huh-7.5 cells)",[3],0.0015 µg/mL
same,"IC50 (µg/ml), micro neutralization of HCV euvirus (NS5A-positive foci in Huh-7.5 cells)",[4],< 0.08 µg/mL
same,"IC50 (µg/ml), micro neutralization of HCV euvirus (NS5A-positive foci in Huh-7.5 cells)",[5],2.43 µg/mL
same,"IC50 (µg/ml), micro neutralization of HCV euvirus (NS5A-positive foci in Huh-7.5 cells)",[6],0.01 µg/mL
same,"IC50 (µg/ml), micro neutralization of HCV euvirus (NS5A-positive foci in Huh-7.5 cells)",[7],< 0.08 µg/mL
same,"IC50 (µg/ml), micro neutralization of HCV euvirus (NS5A-positive foci in Huh-7.5 cells)",[8],0.003 µg/mL
same,"IC50 (µg/ml), micro neutralization of HCV euvirus (NS5A-positive foci in Huh-7.5 cells)",[9],< 0.08 µg/mL
same,"IC50 (µg/ml), micro neutralization of HCV euvirus (NS5A-positive foci in Huh-7.5 cells)",[10],10 µg/mL
same,"IC50 (µg/ml), micro neutralization of HCV euvirus (NS5A-positive foci in Huh-7.5 cells)",[11],0.087 µg/mL
same,"inhibition rate of HCV euvirus, at antibody concentration higher than 0.4 µg/ml",[12],> 90%
same,"inhibition rate of HCV euvirus, at antibody concentration higher than 0.4 µg/ml",[13],> 90%
same,"inhibition rate of HCV euvirus, at antibody concentration higher than 0.4 µg/ml",[14],> 90%
same,"inhibition rate of HCV euvirus, at antibody concentration higher than 0.4 µg/ml",[15],> 90%
